Test results reported in US20150201588A1.

Experiments:
human CD20 (human) [1] = target: human CD20 (human) (UniProt P11836); assay: QIFIKIT-based quantitative flow cytometry on Cyno iPS-EPI-1509-1_Gluc/CD20 (exogenous CD20)
human CD20 (human) [2] = target: human CD20 (human) (UniProt P11836); assay: QIFIKIT-based quantitative flow cytometry on Cyno iPS-EPI-1504-1_Gluc/CD20 (exogenous CD20)
human CD20 (human) [3] = target: human CD20 (human) (UniProt P11836); assay: QIFIKIT-based quantitative flow cytometry on Cyno iPS-EPI-1504-3_Gluc/CD20 (exogenous CD20)
human CD20 (human) [4] = target: human CD20 (human) (UniProt P11836); assay: QIFIKIT-based quantitative flow cytometry on Daudi cells (human Burkitt's lymphoma line, endogenous CD20)

UniProt P11836, sequence (P11836 whole entry): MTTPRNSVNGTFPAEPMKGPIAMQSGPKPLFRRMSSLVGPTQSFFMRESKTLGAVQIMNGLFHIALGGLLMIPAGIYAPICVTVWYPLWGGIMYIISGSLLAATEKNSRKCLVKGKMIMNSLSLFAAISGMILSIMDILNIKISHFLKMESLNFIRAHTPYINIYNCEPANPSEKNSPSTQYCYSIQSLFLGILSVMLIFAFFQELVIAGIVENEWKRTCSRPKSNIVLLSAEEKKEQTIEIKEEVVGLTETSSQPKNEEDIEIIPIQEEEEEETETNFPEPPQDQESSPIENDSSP

Which CD20 Surface Expression (Copies/Cell) (human CD20 (human) [1]) does the source give for anti-CD20-FITC (clone 2H7) (antibody) here?
The CD20 Surface Expression (Copies/Cell) was 1.48e+06 Copies/Cell.

And the CD20 Surface Expression (Copies/Cell) (human CD20 (human) [2])?
The CD20 Surface Expression (Copies/Cell) was 1.38e+06 Copies/Cell.

What about the CD20 Surface Expression (Copies/Cell) (human CD20 (human) [3]) of the same substance?
Its CD20 Surface Expression (Copies/Cell) is 1.22e+06 Copies/Cell.

What about the CD20 Surface Expression (Copies/Cell) (human CD20 (human) [4]) of the same substance?
Its CD20 Surface Expression (Copies/Cell) is 388000 Copies/Cell.
